± gives the standard deviation of the averaged measurements.
Test system: Saccharomyces cerevisiae
Assay: protein stability index of tFT-peptide fusion (C-terminal peptide) (PSI (0-1 scale)); higher = more stable (slower turnover)
Conditions: temperature: 30 C
Procedure: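 MPS profiling in S. cerevisiae of the yeast C-terminome library: the last 12 aa of each annotated ORF are fused to the C-terminus of a sfGFP-mCherry timer, after a GGGS linker. Cells are FACS-sorted into 8 mCherry/sfGFP bins and deep-sequenced. PSI runs from 0 (unstable) to 1 (stable); wild type and das1Δ backgrounds, two technical replicates each.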

[1] = genetic background: das1 deletion

Sequence: DDNEPDEEANRA [RXT2 C-terminal 12 aa]
- protein stability index [1]: 0.672 ± 0.012
- protein stability index (genetic background: wild type): 0.6656 ± 0.0043

Sequence: DDTLERAGRIKN [FAD1 C-terminal 12 aa]
- protein stability index [1]: 0.69 ± 0.023
- protein stability index (genetic background: wild type): 0.709 ± 0.019

Sequence: DECFCLARHEND [TDP1 C-terminal 12 aa]
- protein stability index [1]: 0.7114 ± 0.0022
- protein stability index (genetic background: wild type): 0.708 ± 0.023

Sequence: DEKTLDSIGNSL [VCX1 C-terminal 12 aa]
- protein stability index [1]: 0.701 ± 0.0096
- protein stability index (genetic background: wild type): 0.696 ± 0.013

Sequence: DENDKVIAIKVV [VPS25 C-terminal 12 aa]
- protein stability index [1]: 0.5736 ± 0.00061
- protein stability index (genetic background: wild type): 0.525 ± 0.011

Sequence: DGFSVPITTFQT [CDC15 C-terminal 12 aa]
- protein stability index [1]: 0.712 ± 0.011
- protein stability index (genetic background: wild type): 0.709 ± 0.045

Sequence: DHLHNLAQYWRT [VPS34 C-terminal 12 aa]
- protein stability index [1]: 0.697 ± 0.015
- protein stability index (genetic background: wild type): 0.703 ± 0.038

Sequence: DIIKQGVNDIIV [ARD1 C-terminal 12 aa]
- protein stability index [1]: 0.672 ± 0.015
- protein stability index (genetic background: wild type): 0.717 ± 0.033

Sequence: DIISAFEEYKNA [SEC3 C-terminal 12 aa]
- protein stability index [1]: 0.714 ± 0.036
- protein stability index (genetic background: wild type): 0.685 ± 0.026

Sequence: DLEEAANKAQPQ [YLR257W C-terminal 12 aa]
- protein stability index [1]: 0.6993 ± 0.0011
- protein stability index (genetic background: wild type): 0.7125 ± 0.0015

Sequence: DLESLFKEKLSI [ALA1 C-terminal 12 aa]
- protein stability index [1]: 0.7111 ± 0.0015
- protein stability index (genetic background: wild type): 0.705 ± 0.02

Sequence: DLEVKLKKHKKN [TRZ1 C-terminal 12 aa]
- protein stability index [1]: 0.733 ± 0.029
- protein stability index (genetic background: wild type): 0.676 ± 0.05

Sequence: DLVKAAAGSDNE [RRP15 C-terminal 12 aa]
- protein stability index [1]: 0.6823 ± 0.0059
- protein stability index (genetic background: wild type): 0.675 ± 0.018

Sequence: DLVKASSTLNVS [SDL1 C-terminal 12 aa]
- protein stability index [1]: 0.682 ± 0.0043
- protein stability index (genetic background: wild type): 0.672 ± 0.0084

Sequence: DMGKNLLQNKKF [ERG2 C-terminal 12 aa]
- protein stability index [1]: 0.695 ± 0.039
- protein stability index (genetic background: wild type): 0.695 ± 0.012

Sequence: DNDDDAGAVPTS [CDC13 C-terminal 12 aa]
- protein stability index [1]: 0.7113 ± 0.0012
- protein stability index (genetic background: wild type): 0.684 ± 0.011

Sequence: DPKLYFDATILS [TDA3 C-terminal 12 aa]
- protein stability index [1]: 0.703 ± 0.025
- protein stability index (genetic background: wild type): 0.691 ± 0.013

Sequence: DSQDMERMDSDS [YLR076C C-terminal 12 aa]
- protein stability index [1]: 0.691 ± 0.035
- protein stability index (genetic background: wild type): 0.745 ± 0.11

Sequence: DSQHKHDYSHSG [DCK1 C-terminal 12 aa]
- protein stability index [1]: 0.6787 ± 0.0061
- protein stability index (genetic background: wild type): 0.715 ± 0.035

Sequence: DTFPRWEGIKSK [PAD1 C-terminal 12 aa]
- protein stability index [1]: 0.70511 ± 2.5e-05
- protein stability index (genetic background: wild type): 0.6968 ± 0.0043

Sequence: DVEDVERVSKKI [CDC34 C-terminal 12 aa]
- protein stability index [1]: 0.704 ± 0.057
- protein stability index (genetic background: wild type): 0.67 ± 0.032

Sequence: DWESNQAKWIYE [YNK1 C-terminal 12 aa]
- protein stability index [1]: 0.752 ± 0.034
- protein stability index (genetic background: wild type): 0.718 ± 0.029

Sequence: DYKTKRNPSVLH [ISU2 C-terminal 12 aa]
- protein stability index [1]: 0.6878 ± 0.0024
- protein stability index (genetic background: wild type): 0.7106 ± 0.0056

Sequence: DYSRRVLRLMNE [WSC4 C-terminal 12 aa]
- protein stability index [1]: 0.7058 ± 0.0028
- protein stability index (genetic background: wild type): 0.5834 ± 0.0049

Sequence: DYWRKRGISSVY [ECM38 C-terminal 12 aa]
- protein stability index [1]: 0.68703 ± 0.00044
- protein stability index (genetic background: wild type): 0.72719 ± 0.0003

Sequence: DYYFRTGVKRLQ [ARP10 C-terminal 12 aa]
- protein stability index [1]: 0.705 ± 0.028
- protein stability index (genetic background: wild type): 0.732 ± 0.044

Sequence: EAETPGIIDKHQ [SIS2 C-terminal 12 aa]
- protein stability index [1]: 0.689 ± 0.023
- protein stability index (genetic background: wild type): 0.677 ± 0.044

Sequence: EALPPCLQIFRP [YDR354C-A C-terminal 12 aa]
- protein stability index [1]: 0.701 ± 0.0091
- protein stability index (genetic background: wild type): 0.6739 ± 0.0039

Sequence: EAQLSCSEESLA [COS1 C-terminal 12 aa]
- protein stability index [1]: 0.69057 ± 5e-06
- protein stability index (genetic background: wild type): 0.683 ± 0.024

Sequence: EASEPFKTFKNT [MMS22 C-terminal 12 aa]
- protein stability index [1]: 0.724 ± 0.0073
- protein stability index (genetic background: wild type): 0.696 ± 0.0087

Sequence: EDDFGPKPKFFI [SWE1 C-terminal 12 aa]
- protein stability index [1]: 0.71 ± 0.011
- protein stability index (genetic background: wild type): 0.683 ± 0.039

Sequence: EEEEEEGKEGDA [SCT1 C-terminal 12 aa]
- protein stability index [1]: 0.684 ± 0.012
- protein stability index (genetic background: wild type): 0.697 ± 0.0061

Sequence: EEKKKQEEGHSN [MNN4 C-terminal 12 aa]
- protein stability index [1]: 0.699 ± 0.0072
- protein stability index (genetic background: wild type): 0.663 ± 0.03

Sequence: EFAKCEFETPAV [CKB1 C-terminal 12 aa]
- protein stability index [1]: 0.722 ± 0.011
- protein stability index (genetic background: wild type): 0.74 ± 0.0048

Sequence: EFDLADDRRYDI [TPO5 C-terminal 12 aa]
- protein stability index [1]: 0.705 ± 0.03
- protein stability index (genetic background: wild type): 0.682 ± 0.011

Sequence: EGIFPANYVELV [LSB3 C-terminal 12 aa]
- protein stability index [1]: 0.7016 ± 0.0045
- protein stability index (genetic background: wild type): 0.678 ± 0.037

Sequence: EGPVTIILDSDQ [DTD1 C-terminal 12 aa]
- protein stability index [1]: 0.701 ± 0.0098
- protein stability index (genetic background: wild type): 0.7015 ± 0.0042

Sequence: EKKFKEILNIQW [PET112 C-terminal 12 aa]
- protein stability index [1]: 0.709 ± 0.025
- protein stability index (genetic background: wild type): 0.722 ± 0.01

Sequence: EKKYSNNTNAIQ [CTI6 C-terminal 12 aa]
- protein stability index [1]: 0.68042 ± 0.00045
- protein stability index (genetic background: wild type): 0.657 ± 0.024

Sequence: EKPEGKDTKTEE [CMK1 C-terminal 12 aa]
- protein stability index [1]: 0.685 ± 0.022
- protein stability index (genetic background: wild type): 0.684 ± 0.051

Sequence: EKQSSTASEKAA [THI7 C-terminal 12 aa]
- protein stability index [1]: 0.6813 ± 0.0064
- protein stability index (genetic background: wild type): 0.704 ± 0.029

Source: the supplement of paper PMC10724198
